Assay results from doi:10.1101/2024.06.07.597973.

Target: human melanocortin 4 receptor (MC4R) (human) (UniProt P32245)
Experiment: radioligand binding

UniProt P32245, sequence (P32245 whole entry): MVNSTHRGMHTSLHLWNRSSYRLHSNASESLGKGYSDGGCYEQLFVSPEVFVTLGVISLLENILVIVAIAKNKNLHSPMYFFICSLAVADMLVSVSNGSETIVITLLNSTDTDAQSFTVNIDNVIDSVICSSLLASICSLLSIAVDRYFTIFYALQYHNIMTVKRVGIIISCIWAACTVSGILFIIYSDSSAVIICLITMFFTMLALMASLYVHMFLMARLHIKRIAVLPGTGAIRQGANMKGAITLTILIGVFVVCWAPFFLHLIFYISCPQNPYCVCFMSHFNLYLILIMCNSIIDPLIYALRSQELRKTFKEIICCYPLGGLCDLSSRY

**Q.** With [^125I]-[Nle^4, DPhe^7]-α-MSH (peptide) as the substance, how does the Kd read?
**A.** 0.1 nM
